Values of other authors, collected in publication PMC12635586.
pKd: −log10 of the molar value.

Experiments:
[1] = target: GFRAL (Homo sapiens) (UniProt Q6UXV0)
[2] = target: Clazakizumab
Clazakizumab, sequence (main, as listed by the source, chain 1 of 2): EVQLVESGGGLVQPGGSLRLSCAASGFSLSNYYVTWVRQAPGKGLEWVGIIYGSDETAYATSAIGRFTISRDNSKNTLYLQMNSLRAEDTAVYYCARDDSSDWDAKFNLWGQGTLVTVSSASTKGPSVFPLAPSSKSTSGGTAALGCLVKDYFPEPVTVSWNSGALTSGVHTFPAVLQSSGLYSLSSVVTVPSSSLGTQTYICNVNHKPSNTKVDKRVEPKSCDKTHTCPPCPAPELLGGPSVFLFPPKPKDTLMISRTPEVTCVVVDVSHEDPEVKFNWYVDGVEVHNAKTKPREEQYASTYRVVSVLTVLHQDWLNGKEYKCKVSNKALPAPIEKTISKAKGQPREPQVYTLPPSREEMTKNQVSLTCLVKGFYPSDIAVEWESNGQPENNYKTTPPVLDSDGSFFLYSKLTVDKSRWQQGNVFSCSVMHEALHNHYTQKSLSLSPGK
Clazakizumab, sequence (partner, as listed by the source, chain 2 of 2): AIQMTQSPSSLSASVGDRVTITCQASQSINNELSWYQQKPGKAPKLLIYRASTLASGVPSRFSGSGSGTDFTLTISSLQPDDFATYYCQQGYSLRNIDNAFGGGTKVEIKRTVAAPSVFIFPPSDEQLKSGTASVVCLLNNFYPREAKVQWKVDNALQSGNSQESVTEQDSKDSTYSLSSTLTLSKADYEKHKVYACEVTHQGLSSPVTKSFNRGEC

GFRAL (Homo sapiens), sequence (Q6UXV0 19-351): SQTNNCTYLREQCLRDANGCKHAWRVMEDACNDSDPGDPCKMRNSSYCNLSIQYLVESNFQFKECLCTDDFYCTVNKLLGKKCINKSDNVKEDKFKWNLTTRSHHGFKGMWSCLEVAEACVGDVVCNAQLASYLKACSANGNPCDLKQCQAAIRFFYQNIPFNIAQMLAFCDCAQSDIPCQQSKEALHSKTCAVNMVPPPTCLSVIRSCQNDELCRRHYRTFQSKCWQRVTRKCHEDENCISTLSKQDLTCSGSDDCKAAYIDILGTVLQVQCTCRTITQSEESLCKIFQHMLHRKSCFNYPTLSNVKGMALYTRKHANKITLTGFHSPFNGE
Interleukin-6, sequence (P05231 30-212): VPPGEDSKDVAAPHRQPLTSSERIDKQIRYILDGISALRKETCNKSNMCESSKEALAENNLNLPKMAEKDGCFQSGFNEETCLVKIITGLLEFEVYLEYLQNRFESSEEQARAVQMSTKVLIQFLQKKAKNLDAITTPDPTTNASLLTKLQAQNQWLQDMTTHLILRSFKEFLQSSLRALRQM
Growth differentiation factor-15, sequence (Q99988 195-308): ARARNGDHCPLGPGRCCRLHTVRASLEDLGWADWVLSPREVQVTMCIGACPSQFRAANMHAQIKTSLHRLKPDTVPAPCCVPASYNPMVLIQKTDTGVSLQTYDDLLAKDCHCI

Row | Substance | pKd [1] | pKd [2]
1 | Growth differentiation factor-15 (from UniProt Q99988) | 8.10 | 
2 | Interleukin-6 (from UniProt P05231) |  | 11.40
